Data on 22 sequences can be found in the DeepSol protein solubility set.

The data set in a line: soluble on expression in E. coli; label from the status in PepcDB or PDB records.
As for “DEICKNQYLYRINQENYVLFSFDIFDTLISRNIAKPSAVFLIMKQKMRNMDFPLNLVKNFDRIRVEVEQYYYRNVCKNKYEDTNFDEIYNLLQQNFSLSFQQKEELMKLEINTEKETLYPIKKNIELVEELIKNEKRVVLISDMYFSSSIIRTFLNKFSPIFNNIPIYMSSEFRLKKNSGNLFKAILNLEKVDPKKWIHCGDNWVGDYLKPSNLEISTNFYINQLLPYEEFALNRNSLDMDLQKIIGISKKIR”, the “soluble on expression in E. coli” value is recorded as “not soluble”.

Take “MKKVRKLYEGKAKIVYETDEKDKLILEFKDVATAFDGVKKEEIKGKGSLNNEISSLIFEILEDHGIKTHYIKKLSDREMLVWRAERFPVEVVVRNYAAGSFVKRYGVKEGTKLEQPLVEFFMKSDELHDPMVCINHIKVLKLAPAELVPEMEKIALKVNEILKKIFEEKGILLVDFKLEFGRLPSGELAIVDEISPDSMRLWDKSTGENWIKTDSV”: the “soluble on expression in E. coli” value is “soluble”.

On to “GMRLPLNQRVAILLHEGTTGTIGKTGLALLRYSEAPIVAVIDRNCAGQSLREITGIYRYVPIVKSVEAALEYKPQVLVIGIAPKGGGIPDDYWIELKTALQAGMSLVNGLHTPLANIPDLNALLQPGQLIWDVRKEPANLDVASGAARTLPCRRVLTVGTDMAIGKMSTSLELHWAAKLRGWRSKFLATGQTGVMLEGDGVALDAVRVDFAAGAVEQMVMRYGKNYDILHIEGQGSLLHPGSTATLPLIRGSQPTQLVLVHRAGQTHNGNNPHVPIPPLPEVIRLYETVASGGGAFGTVPVVGIALNTAHLDEYAAKEAIAHTIAETGLPCTDVVRFGADVLLDAVMQN”, for which the “soluble on expression in E. coli” value is on record as “soluble”.

Turning to “GPGSMFRKAESAHAAINATHLTQPTPNCGTVLHVSIAMHDEGLDDHPNDRLFIRGLPQWATKEHLRQMFAPYGVITECAVLMNPLGQCKGSGFVQFSSQQEATAAIKARDSISMDNWPNQLEVKYSESAEVRQMRQERNRNRQRHWLPSPQYRGGNTPSSLPSPYPGFSPPLSLIPSPQAFPVMNAMPFSMVYSPTPATTGAP”, the “soluble on expression in E. coli” value is on record as “soluble”.

As to “MKRAAFYTLGCKVNQYETEAISEMFEKAGYKIVDFEDEADVYVINTCTVTNLSDRKSRQMIRRAKRNNENSIVIVIGCYAQTAPEEVSKIEGVNLVVGTKDRSRILEYLKELETSGGRRNYVGDIMKTREFEELGVNVYKERTRAFIKIQEGCNQFCTYCIIPYARGPVRSRSEENILKEVSGLAHSGYKEVVLTGIHVASYGKDIKNTSLIDIIRKVHEIEGIERIRLGSIEPTTVTEEFVRAIKGMEKLCPQFHISLQSGCDSTLKRMNRKYTTKEYLRSVELLRENLKDVAVTTDVMVGFPGETDEEFNETCRFVEKVLFARMHVFKYSRRKGTPAASYPDQVAPQKKEERSRILIELASRMTLEYNKSFTGRVLPVLFEQEVKGKEGFMEGLTPNYIRVECKGDKDIEGQILNVLLREAKDDYIVGEIVN”, the “soluble on expression in E. coli” value is “soluble”.

Regarding “MSDDEIGDGARAFNQLIQALSLSIETETAVRTFTEMLVSELDVHQLTEQALALLLQHTGADGGAILIEVDGEIRVAASQGIGSAHTLANNDRVRSALRTERRHRVQLPEDLVVDGMLAQFRPKEVIIDPVRHKEVVLGAVVLASGQGFSAEDRNRLDVFERGLALALHNALLYDRLQTLAALDPLTGALEHHHHHH”, the “soluble on expression in E. coli” value is on record as “soluble”.

With “MSLTPLMVNGILGESVTLPLEFPAGEKVNFITWLFNETSLAFIVPHETKSPEIHVTNPKQGKRLNFTQSYSLQLSNLKMEDTGSYRAQISTKTSAKLSSYTLRILRQLRNIQVTNHSQLFQNMTCELHLTCSVEDADDNVSFRWEALGNTLSSQPNLTVSWDPRISSEQDYTCIAENAVSNLSFSVSAQKLCE”, the “soluble on expression in E. coli” value was “soluble”.

For the sequence “MSFVNVDPFGMLAAAATLESLGSHMAVSNAAVASVTTKVPPPAADYVSKKLSLFFSSHGQQYQVQAARGTAFHRKLVRTLANGALAYEEVEIANNEGF”, the “soluble on expression in E. coli” value is given as “not soluble”.

On to “MTARYIAIDWGSTNLRAWLYQGDKCLESRQSEAGVTRLNGKSPDAVLAEVTTHWRDSATPVVMAGMIGSNVGWQNAPYLPVPALFSAIGEQLTAVGDNIWIIPGLCVSREDNHNVMRGEETQLLGACELSPSSVYVMPGTHCKWVQTDTQQIHDFRTVMTGELHHLLLRHSLVGAGLPEQEVSGDAYAAGLERGLNSPAVLPSLFEVRASHVLGHLAREQVSDFLSGLLIGAEVASMSESFAAQQAITLVAGPALISRYQQAFSAIGRDVSTVDGDMAFQAGIRSIAHAVAN”, for which the “soluble on expression in E. coli” value was “not soluble”.

For the sequence “MPQTSAWQLNDTTARPPPPPPPPGSEAGGSDGASMNGANTLPRVSKRVSAAGKTSNIPRFKRPHLPHSTRPLSAVLTSSSSPVVHRKISPSSSAPSTSSAHRRFSHLPQQHFHHHIHHNQTAVISEETLTTPRASTLNLNQTSVFPTAISQGSMPNSGTNTAEASMTSSVCAMETEGTNGDELAESRDMVSEMQRRCRIGPSGYPHLLKAKRLRFYRNGDQYFKGIQYALQSDRVKSMQPLMEDLMKTVICDSTALPHGIRHIFTIDGAQRITSVDQFEDGGGYVCSSTDAFKPVDYSRAAEPSWRLTLANRYNRHLETKKLALSVVEPCHENTDFVFPRIIKVIRNGVKPRRISRHLLNKKTARSFDQVLRDLTFVVKLDSGAIRKLFTLSGRPVLSLQDFFRDDDVFVAYGGNEKMAADDLLVASEEHKSVGSGTSSNMRRTSRRSTMPNRNESLRHDRSGSVIPDQDQQRLPPLLDEKFQLVRLIGDGNTAVVYEVIDKTNNDDRKAMKVIARENVIGKEHLIEMELAILQKIDHTFIVQLYDHWFVDDSYYLSLELIEMGDLFEHLRIVRRVPERDAVRMMTCLGQALEYIHELGIVHRDVKLENLLIVKDEFGELGVKLADFGLAAEMPKDFGVLSTICGTPTYVAPEVLNKTGYGCKVDIWAAGVILYAILVGFPPFQSSDGSEQDLFSAIMSGEFSFPSPSWDDVSWSVRHLIMCLIHTDPFHRYSAGELLNDEWMVNLGDVDPEYEEWAHRFVQSKMHVEEEQETPYEYYTSRRTSMDELSESAAVEFSYSCES”, the “soluble on expression in E. coli” value is reported as “not soluble”.

On to “MSLDSNTVAVNPDSLILKRFLKTNQLNGIMIVTGPDGKAQVFSNQSKVDGSPVSIKDYFPLASLQKLITGVAIQQLIDKGKLSLNTPLSKYYPQIENSENITIQNLLTHTSGLADRKEVPQQVLTTQEQQLDFSLTNYRVTYRKKWKYANINYALLAGIISQISGQNYATYVRQHFLTAGKGWHFKKYIQIKDKSKLAALSVMDQSTTWDKLSKEVTSTFGAGDYASRPVDYWKFMMAFINDQFVPVSEYQRSMKMTSKSYYGGLYISQKMLHANGGGFDTYSCFAYSNPKTKQVMVLFITNGKYKRVKSLAAKAFKLYADSYALRKNETSEGHHHHHH”, for which the “soluble on expression in E. coli” value is given as “soluble”.

“MALNGAEVDDFSWEPPTEAETKVLQARRERQDRISRLMGDYLLRGYRMLGETCADCGTILLQDKQRKIYCVACQELDSDVDKDNPALNAQAALSQAREHQLASASELPLGSRPAPQPPVPRPEHCEGAAAGLKAAQGPPAPAVPPNTDVMACTQTALLQKLTWASAELGSSTSLETSIQLCGLIRACAEALRSLQQLQHLEHHHHHH”: the “soluble on expression in E. coli” value is recorded as “not soluble”.

As to “GPGSMPPKRPLYEVLGVSQDAAEEEISRVYRRMALQYHPDRNPNGEAKFKDIANAYSVLGDSEKRRVYDATGVIPGGAAETDNEATMAERSAEMKERVQVFYATYAGSPEETEDVISCYKKCKGNFRRMAREELLFDNKKQGEIQRLMELVRSLVESGRLNPTEAWKVTNTAAVLKQIERSLTRERKEAKDALDAMGLSAKEGEGGLHALQALMKRDQEAEWSKMMSNLESKYVKPKSATKGVEQNGKRNKRKAEATKTVSAPPQKKSRR”, the “soluble on expression in E. coli” value is on record as “soluble”.

Take “GSMPHIKGHEGDPCLRSSDCIDGFCCARHFWTKICKPVLHQGEVCTKQRKKGSHGLEIFQRCDCAKGLSCKVWKDATYSSKARLHVCQKI”: the “soluble on expression in E. coli” value was “soluble”.

With “MAVSDSQNSQTCLDPDASRSVLGIILGGGAGTRLYPLTKKRAKPAVPLGANYRLIDIPVSNCLNSNISKIYVLTQFNSASLNRHLSRAYASNMGGYKNEGFVEVLAAQQSPENPDWFQGTADAVRQYLWLFEEHTVLEYLILAGDHLYRMDYEKFIQAHRETDADITVAALPMDEKRATAFGLMKIDEEGRIIEFAEKPQGEQLQAMKVDTTILGLDDKRAKEMPFIASMGIYVISKDVMLNLLRDKFPGANDFGSEVIPGATSLGMRVQAYLYDGYWEDIGTIEAFYNANLGITKKPVPDFSFYDRSAPIYTQPRYLPPSKMLDADVTDSVIGEGCVIKNCKIHHSVVGLRSCISEGAIIEDSLLMGADYYETDADRKLLAAKGSVPIGIGKNCHIKRAIIDKNARIGDNVKIINKDNVQEAARETDGYFIKSGIVTVIKDALIPSGIII”, the “soluble on expression in E. coli” value is given as “soluble”.

For “MYQVIKMYGDWEPWWFIDGWQDDIIDEQQFSDWQEALDYFNQEWQRMKAIFPSYHSQKNLLATFWEKEDKRWCEDCDEDLQQFHSLLLLKNKDIVPSNNYIPEFEQRNDSPQVAYLCKLNL”, the “soluble on expression in E. coli” value is given as “not soluble”.

In the case of “MDEDIICVGCGAILQSDDPKKAGYLPKSALDKAKREENTDVYCQRCFRLRHYNEIMPVDLNNDDFLALLNSLSEKKALVVNVVDLFDFSNSLLSSLKRFVGNNDFILVGNKFDLFPKNSKQSKIKDWMRQEANRMGLYPKDIFLVSAKKKVNLESLISYINDHSQDKDVYFVGTTNVGKSTLINAIIDMMGDIQDLITTSRFPGTTLDQIEIPLENGHFLIDTPGIMTDNQLATHLNAKDLELVSPKKPLKPATYQLLPGNTLFLAGLGRIDFLKGESTSFTVYVARDMYVHRTKTANADAFYEKHKGELLTPPSADDQMAPLKGKEFRTDYKSDLLFGGIGFVTVPKGCVVKTYTPDGIGLGIRRALILEHHHHHH”, the “soluble on expression in E. coli” value is “soluble”.

Regarding “MRLTSKGRYAVTAMLDVALNSEAGPVPLADISERQGISLSYLEQLFSRLRKNGLVSSVRGPGGGYLLGKDASSIAVGEVISAVDESVDATRCQGKGGCQGGDKCLTHALWRDLSDRLTGFLNNLEHHHHHH”, the “soluble on expression in E. coli” value is “not soluble”.

On to “MHGNPMNIPPVSIAAAKAALIEQYADPTLRRRASMLWGTRGVGKSSIVRQVAAHYRVPLIDLRLTTIEPVDIRGAIYADENLAKTVWFPPEFLPSRDQPEGVLFLDELTAADQRLQISAYSLILDRRVGNYHLPDGWQVVAAGNASFHGAISHDMGTALADRMFHFNVQTAIDAFLNHAITQEFAPEVMAYLKIRPDKLDDTQAQLAGDHLIGASPRGWEDISNVLKSGLSDHAKRLFVQGRIGAANAAEFFGVLREIQAGTDVLKLLAARPGPETAALLPKSLDALYGMLYGLLAASTDKQTMARALEIIEQLPDIRSAAPLPIREAQTLAMELLMQRGLENGLESAILDSPAYASYAGRRQLEASDALEHHHHHH”, for which the “soluble on expression in E. coli” value is listed as “not soluble”.

For the sequence “MGSDKIHHHHHHMSLEGLSINFATVRQGGNFGAIVDACLAHGITAISPWREQVHGVGLAEAARIVEQNGLRLSGHCRGGFFPAIDADGRRRAIEDNKRAVDEAAAMKADCLVLVVGGLPAGSRDLKGARQMVEDGMAKLLPYARAAGVPLAIEPLHPFYAAERACFNTLKQSLDLCDRLGAGTGVAIDVYHVWWDPELEEQVARAGRNGQILAHHICDWLVPTTDPLNDRGMMGDGVIDLKAFRAMIEAAGFHGPQEVEIFSHRWQARPMDEVLATVVERFKTVC”, the “soluble on expression in E. coli” value is given as “not soluble”.

“AHHHHHHASAKWVCKICGYIYDEDAGDPDNGISPGTKFEELPDDWVCPICGAPKSEFEKLEDGSQGYSRRGNMMIILKPLIEVDLPEDFVDIIKAKLKGQTVKSGEIITVDILGKPIEFKVLYAEPSPVKVTQKTQIKFAKGNVFEVSLDFKAKDCIITDAFIVLTGESEVLILNHNFEEIRRIEFENLKKIVVKGDLVVLIGEEKVKILKLQ”: the “soluble on expression in E. coli” value is listed as “soluble”.

For the sequence “MNIKEKIVVLRNTEDGSFLKSFKNKKDVLAYNVELTDSIQLASFLPEEAYNIQKEKIDNLAETLGCDVVVIEASYDLKFVDGEDVPELTKEQKVKSMVNGMFEQVFGGE”, the “soluble on expression in E. coli” value is reported as “not soluble”.
